Columns and labels:
[1] = target: T1, short form of human CCRL2 (CRAM-B) (human) (UniProt O00421); assay: cell-based or functional assay
T1 sequence: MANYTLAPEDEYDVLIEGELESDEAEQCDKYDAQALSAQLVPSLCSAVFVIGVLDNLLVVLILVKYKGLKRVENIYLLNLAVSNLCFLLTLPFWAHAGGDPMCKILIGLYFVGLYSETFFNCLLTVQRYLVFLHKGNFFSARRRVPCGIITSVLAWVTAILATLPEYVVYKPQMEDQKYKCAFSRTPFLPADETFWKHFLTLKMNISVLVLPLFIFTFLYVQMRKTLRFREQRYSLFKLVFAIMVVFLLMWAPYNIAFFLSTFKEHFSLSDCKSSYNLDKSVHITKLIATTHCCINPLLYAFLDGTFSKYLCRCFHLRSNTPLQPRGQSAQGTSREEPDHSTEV

[2] = target: Corticotropin Releasing Factor Receptor (CRFR), CRF-R1 (UniProt P34998); assay: cell-based or functional assay
Sequence of UniProt P34998 (P34998 24-415 limits assumed): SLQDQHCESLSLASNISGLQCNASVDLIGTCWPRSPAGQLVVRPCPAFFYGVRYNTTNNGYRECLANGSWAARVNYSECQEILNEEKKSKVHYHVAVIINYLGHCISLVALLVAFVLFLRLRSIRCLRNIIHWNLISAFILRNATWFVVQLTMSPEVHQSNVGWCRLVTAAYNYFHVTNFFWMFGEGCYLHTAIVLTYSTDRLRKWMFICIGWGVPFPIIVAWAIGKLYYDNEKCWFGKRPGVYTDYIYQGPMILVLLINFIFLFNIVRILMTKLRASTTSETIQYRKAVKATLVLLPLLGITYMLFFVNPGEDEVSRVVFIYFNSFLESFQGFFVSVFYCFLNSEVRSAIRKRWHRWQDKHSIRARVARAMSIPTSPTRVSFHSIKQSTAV

## Monocyte chemotactic protein-1 (MCP-1) (from UniProt P13500 24-99) (ligand)
[1]
  LacZ activity, Gq-transplant yeast, 10^-6 M ligand: 5.7 LacZ units

## Monocyte chemotactic protein-3 (MCP-3) (from UniProt P80098 24-99) (ligand)
[1]
  LacZ activity, Gi2-transplant yeast, 10^-6 M ligand: 2.2 LacZ units
  chemotaxis of CCRL2 transfected cells, 10 nM chemokine; more cells passing across the membrane than untreated cells: 35%

B1: macrophage inflammatory protein-4 (MIP-4) (ligand)
chain: AQVGTNKELCCLVYTSWQIPQKFIVDYSETSPQCPKPGVILLTKRGRQICADPNKKWVQKYISDLKLNA
[1]
  LacZ activity, Gi3-transplant yeast, 10^-6 M ligand: 6.5 LacZ units
  chemotaxis of CCRL2 transfected cells, 10 nM chemokine; more cells passing across the membrane than untreated cells: 35%

B2: Corticotrophin releasing factor (CRF) (peptide, UniProt P06850 154-194, looked up)
peptide: SEEPPISLDLTFHLLREVLEMARAEQLAQQAHSNRKLMEII
[2]
  LacZ activity, Gi2-transplant yeast, 10^-6 M ligand: 6.4 LacZ units
  LacZ activity, Gi3-transplant yeast, 10^-6 M ligand: 17.2 LacZ units

B3: Urocortin (peptide, UniProt P55089 83-122, looked up)
peptide: DNPSLSIDLTFHLLRTLLELARTQSQRERAEQNRIIFDSV
[2]
  LacZ activity, Gq-transplant yeast, 10^-6 M ligand: 6.9 LacZ units

From patent publication US20070036781A1
